# In patent US12059448B2, “Pharmaceutical composition comprising thrombolytic peptide-tetrahydroisoquinoline conjugate” (Lumosa Therapeutics Co., LTD, priority 2019, dated 2024):
# Experiment: Formulation stability in different pH solutions (Example 2), DC009 assay recovery by HPLC
# Format: physicochemical
# Protocol: DC009 were prepared according to the US Publication Application No. 2016-0083423. The final product was washed repetitively by DCM, THF and ethyl ether several times to increase the purity of the final product. The concentration and purity of DC009 in a solution are determined by HPLC with the following conditions. • Column: alkyl reversed-phase bounded phase column • Mobile Phase (MP): MP A: 0.1% by volume TFA in DI water/MP B: 0.1% by volume TFA in acetonitrile • Detection Wavelength: 214 & 280 nm • Column Temperature: 20-25° C. • Sample Temperature: 10-15° C. • Injection Volume: 10-20 μL • Gradient: MP A and MP B
# In Examples 2-6, the stability of each formulation is shown as “assay recovery” or “relative purity level”. Samples at each time point was analyzed by HPLC as described above. For “Assay Recovery”, the % number is calculated by dividing the DC009 concentration at the time point by the DC009 concentration at T=0. For “Relative purity level”, the % number is calculated by (Peak area % of DC009 at Tn/Peak area % of DC009 at T0)*100%. […]
# These formulations were stored at 40° C. and 60° C. to evaluate the assay recovery and total impurity. The appearance and stability at each storage condition were recorded at Table 2 and Table 3.
smiles,measurement,setting,value
"C[C@H](NC(=O)[C@@H]1CCCN1)C(=O)N[C@@H](CCCCN)C(=O)NCCCC[C@H](NC(=O)[C@@H]1Cc2cc(O)c(O)cc2C(C)(C)N1)C(=O)O [DC009, 3S-6,7-dihydroxy-1,1-dimethyl-1,2,3,4-tetrahydro-isoquinoline-3-acyl-Lys(Pro-Ala-Lys)]",stability of DC009,acidic conditions,stable
same,stability of DC009,pH between 4 and 5,very stable
